Residue numbers refer to the chain shown, from its start. In names and notes the source's numbering stands. Where two headings read alike, the source gives them in different places.
B1: Pbm-AIF: full length mouse AIF mutant R588A;K589A;K592A (PAR binding motif mutant) (protein)
chain: MFRCGGLAGAFKQKLVPLVRTVYVQRPKQRNRLPGNLFQQWRVPLELQMARQMASSGSSGGKMDNSVLVLIVGLSTIGAGAYAYKTIKEDQKRYNERVMGLGLSPEEKQRRAIASATEGGSVPQIRAPSHVPFLLIGGGTAAFAAARSIRARDPGARVLIVSEDPELPYMRPPLSKELWFSDDPNVTKTLQFRQWNGKERSIYFQPPSFYVSAQDLPNIENGGVAVLTGKKVVHLDVRGNMVKLNDGSQITFEKCLIATGGTPRSLSAIDRAGAEVKSRTTLFRKIGDFRALEKISREVKSITVIGGGFLGSELACALGRKSQASGIEVIQLFPEKGNMGKILPQYLSNWTMEKVKREGVKVMPNAIVQSVGVSGGRLLIKLKDGRKVETDHIVTAVGLEPNVELAKTGGLEIDSDFGGFRVNAELQARSNIWVAGDAACFYDIKLGRRRVEHHDHAVVSGRLAGENMTGAAKPYWHQSMFWSDLGPDVGYEAIGLVDSSLPTVGVFAKATAQDNPKSATEQSGTGIRSESETESEASEITIPPSAPAVPQVPVEGEDYGKGVIFYLRDKVVVGIVLWNVFNRMPIAAAIIADGEQHEDLNEVAKLFNIHED
B2: WT-AIF: full length wild type mouse AIF (apoptosis-inducing factor), recombinant (protein)
chain: B1 chain with A588R, A589K, A592K

Tests used:
[1] = test system: HeLa cells; test: AIF nuclear translocation in HeLa cells after MNNG; format: cell-based; settings: MNNG 50 μM for 15 minutes
Protocol: (§1) Unless otherwise set forth herein, immunocytochemistry, immunohistochemistry and confocal microscopy as referenced in the examples entailed the following materials and procedures. For immunocytochemistry, cells were fixed 2 hours after treatment with 4% paraformaldehyde, permeabilized with 0.05% Triton X-100, and blocked with 3% bovine serum albumin in PBS. AIF was visualized by 2 μg/ml mouse anti-Flag/Cyt AffiniPure Donkey Anti-Mouse IgG or rabbit anti-AIF/Cy3 AffiniPure Donkey Anti-Rabbit IgG. Immunohistochemistry was performed using the antibody against Flag. Immunofluorescence analysis thereafter was carried out by using a LSM510 confocal laser scanning microscope (obtained from Carl Zeiss Microlmaging) as described by H. Wang et al. (J. Neurosci, 2004).

[2] = test system: Hq cortical neurons; test: NMDA excitotoxicity in Hq cortical neurons; format: cell-based, mouse; settings: DPQ (30 μM) or zVAD (100 μM) in addition to NMDA
Protocol: HQ cortical neuron cells were transduced with lentivirus carrying WT-AIF-Flag or Pbm-AIF-Flag. Non-transduced neurons and GFP-lentivirus infected cells were used as negative controls. […] In those photos, blue indicates Hoechst 33342 staining and red indicates propidium iodide staining. […] The cytotoxicity in these Hq cortical neurons was measured at 24 hours, 36 hours, and 48 hours after NMDA (500 μM for 5 min) treatment, and the data for this is reported in the graph of FIG. 18B.

[3] = test system: PAR; test: PAR overlay assay of full length AIF and mutants; format: binding
Protocol: (§2) The following experiment was performed to confirm whether AIF in fact binds to PAR. Applicants performed 3 trials of an overlay assay on recombinant AIF with affinity-purified biotin-labeled PAR. Histone H3, which binds to PAR with high affinity, was included as a positive control and bovine serum albumin (“BSA”) was included as a negative control, as described by P. Chang et al. (Nat Cell Bio, 2005). FIG. 1B depicts three photos side by side for gels representative of all trials for these overlay assays. […] Thus, Applicants took the results of these two tests as confirming that AIF binds to PAR in vitro.
To further study these potential AIF PBMs, Applicants performed the following experiment to examine the effect of mutating AIFm amino acids 222-244, 441-463, and/or 567-592 to poly-alanine on the ability of AIF to bind PAR. FIG. 6 comprises black and white photographs of representative gels from an overlay assay of His-tagged WT-AIF, AIFm222-244, AIFm441-463, AIFm567-592, AIFΔ567-592 (i.e., a mutant lacking AAs 567-592), and AIF(K254A, R264A) (i.e., mutating K to A at 254 and R to A at 264) mutants with ^32P-labeled automodified PARP-1 (equivalent to 100 nM of PAR), purified ^32P-labeled PAR (100 nM), or purified ^32P-labeled PAR with either a 100-fold excess of DNA or cold PAR. […] The same can be assumed to corresponding sequences for other species, such as those identified in FIG. 4.
Additionally, to exclude the possibility that PAR polymer is binding to AIF through its DNA-binding domain, PAR polymer binding was assessed against the full length AIF DNA-binding mutant AIFK254A;R264A as described by H Cande et al. (Nat Struct Biol, 2002).
Finally, Human AIF (“AIFH”) is known to bind to DNA through a groove between the FAD-binding domain (“D1”) and C-terminal domain (“D3”). A mutant form of AIFH in which lysine 255 is substituted with alanine and arginine 265 is substituted with alanine (AIFK255A;R265A) completely lacks DNA binding. To investigate the possible contribution of the AIF DNA-binding domain to PAR binding, Applicants assessed PAR binding to AIFm mutated in the same way (AIFK254A;R264A). […] Thus, Applicants concluded that the AIF PAR-binding site is separable from its DNA-binding site, meaning that such binding could be inhibited by genetically modifying AIF without impacting the natural DNA binding capabilities of AIF or potentially by otherwise inhibiting the binding action of the PBMs.

[4] = test system: isolated HeLa nuclei; test: nuclear shrinkage assay; format: biochemical; settings: non-tagged proteins incubated with isolated HeLa nuclei
Protocol: Nuclei were obtained by purification from HeLa cells as described previously by A. Mandir et al. (J Neurosci, 2000). For the assay, purified nuclei were incubated with recombinant WT-AIF or Pbm-AIF (20 ng/ml) in the presence of ATP (2 mM), phosphocreatine (20 mM) and creatine kinase (50 μg/ml) for 90 minutes at 37° C. Nuclei were stained by DAPI and examined by fluorescence microscopy.
FIG. 11D comprises an array of color photographs showing the result of fluorescence microscopy for various cultures, as labeled in the figure, following DAPI staining. […] FIG. 11E is a chart reporting the result of a quantification of nuclei treated by WT-AIF, Pbm-AIF, and control (“CTL”), using Caspase 3 as a positive control.

[5] = test system: PAR; test: in vitro PAR-binding assay, twenty percent TBE-PAGE analysis
Protocol: To begin, 300 nM of purified WT-AIF or Pbm-AIF (i.e., AIF mutated in its PAR binding region) were incubated with ^32P-labeled PAR for 10 minutes at room temperature. Thereafter, samples were incubated with AIF antibody-linked protein G slurry for 1 hour. Samples were washed two times with PBS and boiled with 1× Laemmli sample buffer (obtained from BIO-RAD). Each soluble fraction was resolved in 20% TBE-PAGE. The gel was heat dried and developed using the Typhoon 9400 Imager.
(§3) To further ascertain whether full length recombinant AIF-Tm produced above (henceforth named “Pbm-AIF”) binds PAR, Applicants performed three iterations of an EMSA assay for PAR binding with recombinant WT-AIF and Pbm-AIF, using histone H3 as a control. […] FIG. 9 comprises a black and white photograph of EMSA gels showing representative results for WT-AIF and Pbm-AIF using ^32P-labeled PAR.

[6] = test system: Hq mouse cortical neuronal cultures; test: AIF translocation to the nucleus in Hq cortical neurons; format: cell-based; settings: 100 nM staurosporine, 24 hours
Protocol: as §1, with “For immunocytochemistry, cells were fixed 2 hours after treatment with 4% paraformaldehyde, permeabilized with 0.05% Triton X-100, and blocked with 3% bovine serum albumin in PBS.” left out
Again, AIF translocation to the nucleus was monitored two hours after NMDA (500 μM, 5 minutes) treatment sufficient to initiate parthanatos in wild-type cells.

[7] = test system: PAR; test: biotin-labeled PAR pull-down assay; format: binding; settings: biotin-labeled PAR-conjugated NeutrAvidin beads
Description: To confirm that Pbm-AIF fails to bind PAR, Applicants also performed four trials of biotin-labeled PAR pull-down assays on WT-AIF, Pbm-AIF, and histone H3. For this experiment, the pull-down assay used biotin-labeled PAR-conjugated NeutrAvidin beads. FIG. 10A comprises a composite black and white photograph depicting typical gels obtained in this pull-down assay.

[8] = test system: PAR; test: EMSA with 32P-labeled PAR; format: binding
Protocol: as §2, §3

[9] = test system: isolated mitochondria; test: AIF binding to isolated mitochondria; settings: for binding to mitochondria versus concentration: 0.1 ng/μl to 120.5 ng/μl, 30 minutes, room temperature; for binding percentage to mitochondria over time: 2.5 ng/μl, mitochondria 200 μg/ml, after 5 minutes; for depletion from the supernatant by mitochondria: untreated mitochondria, absence of PAR
Protocol: One commonly accepted estimate is that approximately 20%-30% of AIF resides on the cytosolic side of the outer membrane of mitochondria, where it is poised to be rapidly released by PAR following PARP-1 activation. Applicants thus wanted to perform tests of AIF binding to mitochondria determine how readily purified WT-AIF and Pbm-AIF bind to mitochondria in a time- and concentration-dependent manner. Specifically, recombinant WT-AIF (2.5 ng/μl) and Pbm-AIF (2.5 ng/μl) were incubated with isolated mitochondria (200 μg/ml) for 1 minute, 5 minutes, 10 minutes, 15 minutes, 20 minutes or 30 minutes. […] The results of this portion of the experiment is provided by the graph of FIG. 15B.
To investigate the mechanism underlying mitochondrial AIF release following PARP-1 activation, Applicants incubated isolated mitochondria with purified non-tagged forms of AIF in the presence or absence of PAR and followed this by centrifugation to remove the mitochondria. Detection of AIF remaining in the supernatant was thereafter performed through immunoblot analysis.
The supernatant collected in the experiments of Example 16 were also analyzed for the presence of Tom20 and cyclochrome c.

Molecule | effect on nuclear translocation of AIF after MNNG [1] | effect on NMDA-induced cortical neuron death [2] | PAR binding ([3]; His-tagged proteins, purified PAR, normalized to WT-AIF, result in words) | reduced PAR binding ([3]; radioactive signal normalized to WT-AIF) [%] | chromatin condensation and nuclear shrinkage [4] | binding to 32P-PAR [5] | translocation to the nucleus after staurosporine [6] | pull-down with biotin-labeled PAR [7] | PAR mobility shift [8] | binding to mitochondria versus concentration [9] | binding percentage to mitochondria over time [9] | effect of PAR on association with mitochondria ([9]; 5 nM PAR) | effect of PAR on association with mitochondria ([9]; 50 nM PAR) | effect of PAR on association with mitochondria ([9]; 100 nM PAR) | depletion from the supernatant by mitochondria [9] | effect of hundred fold excess of salmon sperm DNA on PAR binding ([3]; overlay assay, 32P-labeled PAR) | binding to biotin-labeled PAR ([3]; overlay assay, affinity-purified biotin-labeled PAR) | effect of salmon sperm DNA on PAR binding ([3]; salmon sperm DNA at 760 μM) | PAR mobility shift ([8]; listed as AIFm)
O=C1NCCc2c(OCCCCN3CCCCC3)cccc21 [DPQ, 3,4-Dihydro-5[4-(1-piperindinyl)butoxy]-1(2H)-isoquinoline, reference compound] | prevented the nuclear translocation of both endogenous AIF and WT-AIF-Flag | inhibited NMDA-induced cortical neuron death | – | – | – | – | – | – | – | – | – | – | – | – | – | – | – | – | –
B1 | – | – | nearly abolished PAR-binding | 90 | comparable levels of chromatin condensation and nuclear shrinkage | failed to bind to ^32P-PAR | translocated to the nucleus | only a barely detectable amount | no effect on PAR mobility | bound to the mitochondria in a concentration dependent manner | equivalent | failed to affect association | barely detectable effects | partially reduced mitochondrial binding | effectively depleted | – | – | – | –
B2 | – | – | – | – | comparable levels of chromatin condensation and nuclear shrinkage | bound to ^32P-PAR of different lengths | – | pulled down with biotin-labeled PAR | caused a PAR mobility shift in a concentration-dependent manner | bound to the mitochondria in a concentration dependent manner | equivalent | failed to affect association | increased the concentration of WT-AIF in the supernatant | almost completely abolished | effectively depleted | fails to disrupt | bound to biotin-labeled PAR in a concentration-dependent manner | failed to disrupt PAR binding | cause a shift of PAR polymer

Source: patent publication US20120122765A1, “COMPOUNDS AND RELATED METHODS FOR MANIPULATING PARP-1-DEPENDENT CELL DEATH” (priority 2010, published 2012)
